In patent EP1073891B1, “METHOD OF PREDICTING RECEPTOR MODULATING ACTIVITY” (Duke University, priority 1998, dated 1999):

Key:
[1] = molecular target: T1, estrogen receptor α (ERα) (Homo sapiens, UniProt P03372); assay: LexA yeast two hybrid, β-galactosidase activity assay (Example 3); type: cell-based
T1 construct: The full length estrogen receptor was subcloned in frame into the EcoRI and XhoI sites of pJG4-5; expressed in transfected cells; host or cells: Saccharomyces cerevisiae EGY48
T1 sequence (P03372 1-595): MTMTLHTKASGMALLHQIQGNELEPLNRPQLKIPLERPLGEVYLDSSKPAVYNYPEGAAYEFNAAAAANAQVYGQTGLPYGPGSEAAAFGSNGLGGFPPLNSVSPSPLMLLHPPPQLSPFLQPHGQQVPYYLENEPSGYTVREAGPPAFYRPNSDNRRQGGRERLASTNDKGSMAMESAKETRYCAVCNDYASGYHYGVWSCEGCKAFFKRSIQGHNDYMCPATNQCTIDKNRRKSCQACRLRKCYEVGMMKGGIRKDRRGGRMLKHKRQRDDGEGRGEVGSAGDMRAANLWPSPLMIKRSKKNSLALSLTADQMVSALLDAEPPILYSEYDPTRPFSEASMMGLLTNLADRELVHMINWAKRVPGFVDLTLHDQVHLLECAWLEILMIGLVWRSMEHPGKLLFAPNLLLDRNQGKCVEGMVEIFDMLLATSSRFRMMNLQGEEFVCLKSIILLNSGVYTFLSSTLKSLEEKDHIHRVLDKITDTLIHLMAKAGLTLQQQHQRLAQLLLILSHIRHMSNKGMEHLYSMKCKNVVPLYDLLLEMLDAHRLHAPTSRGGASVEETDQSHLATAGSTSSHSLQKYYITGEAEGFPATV
From the text: The LexA system that we employ utilizes a bacterial DNA binding protein domain, LexA, and a bacterially derived transcriptional activation sequence, B42. Proteins or peptides of interest are fused in frame with these domains and expressed using episomal plasmids in a yeast cell. The interactions between these proteins/peptides of interest are registered by monitoring the level of the reporter gene product, β-galactosidase, by an enzymatic assay. The differences in the levels of β-galactosidase activities reflect the relative strengths of the protein interactions.
The yeast strains used in this study was EGY48 (MAT a trp1 his3 ura3 leu2::61exAops-LEU2) purchased from OriGeneTechnologies for yeast two hybrid analysis. This strain contains 6 LexA operators upstream of the LEU2 gene in the yeast genome and provides high sensitivity in detecting protein-protein interactions in the LexA two hybrid system. The plasmids used in this study were pEG202 (LexA-DNA binding domain), pJG4-5 (B42-activation domain), and the plasmid containing a β-galactosidase reporter, pJK103 (OriGene Technologies). The full length estrogen receptor was subcloned in frame into the EcoRI and XhoI sites of pJG4-5 to generate an ERα-B42 activation domain fusion. ERα was subcloned in the activation domain plasmid because ERα was able to autoactivate reporters when fused to the LexA DNA binding domain.
The peptide sequences used in this study were generated from synthetic oligos filled in by T7 Sequenase (Life Science) and subcloned into the EcoRI-XhoI sites of pEG202. The synthetic oligos were: [formula] [formula] [formula] [formula] The complementary synthetic oligo used to generate double stranded DNA was 3'XhoPrim, 5'-[…]. Each 5'-oligo was annealed to the 3'-oligo by heating to 90 °C for 15 minutes and cooled slowly to 35 °C. T7 sequenase was added and the fill-in reaction allowed to proceed at 30 °C for 30 minutes. The reaction was terminated by heat denaturing the enzyme at 65 °C for 1 hour, restriction digests were performed and the resulting DNA fragments subcloned into pEG202 to generate peptide-LexA DNA binding domain fusions.
The culture was diluted to ~2x10^6 cells/ml in the same media and allowed to grow at 30 °C until the cultures reached a density of ~1x10^7 cells/ml (∼4 hours). The yeast cells were pelleted by centurifugation, washed with extraction buffer (60 mM Na2HPO4, 40 mMNaH2PO4, 10 mM KCl, 1 mM MgSO4, 1mM PMSF, 7 mM 2-mercaptoethanol) and suspended in 200 µl of extraction buffer. 100 µl of acid-washed glass beads were added and cells were lysed by vigorous agitation for 10 minutes at 4 °C. Cellular debris was pelleted by centrifugation and the supernatant transferred to a clean tube. 10 µg of total cellular protein was diluted into complete Z buffer (60 mM Na2HPO4, 40 mMNaH2PO4 , 10 mM KCl, 1 mM MgSO4, 7 mM 2-mercaptoethanol) to a volume of 100 µl in a 96-well microplate. 80 µg of o-nitrophenyl-β-D-pyranoside (ONPG) in 20 µl was added to each well to initiate color development.
10µg of each protein extract was assayed for β-galactosidase activity using o-nitrophenyl-b-D-pyranoside as substrate. Activity units are defied as 1000* Abs405/minutes/mg/protein.
Values are in beta-galactosidase units (MOD/min/mg)

ER = molecular target: T2, ER (Homo sapiens, UniProt P03372); assay: Disruption of tamoxifen activated ER transcription on several promoters (1x-ERE-Luc, 3X-ERE-Luc, TK-ERE-Luc, C3-Luc) (Example 4.5); type: cell-based; conditions: tamoxifen (10nM), TK-ERE-Luc and C3-Luc
T2 construct: expressed in transfected cells; host or cells: HepG2
T2 sequence (P03372 1-595): T1 sequence (P03372 1-595)

ERα = molecular target: T3, ERα (Homo sapiens, UniProt P03372); assay: Phage ELISA / fingerprint on ER immobilized on biotinylated ERE (Examples 2.3-2.5); type: binding; set-up: purchased PanVera Corporation, Madison, WI; conditions: for binding to ERα in the in vitro phage display system: presence or absence of estradiol / 4-OH-tamoxifen
T3 sequence (P03372 1-595): T1 sequence (P03372 1-595)

Sequence	Peptide Interactions with ER Alpha, beta-galactosidase units, value ([1]; 4-hydroxy Tamoxifen)	Peptide Interactions with ER Alpha, beta-galactosidase units, value ([1]; Estradiol)	Peptide Interactions with ER Alpha, beta-galactosidase units, value ([1]; No Addition)	Peptide Interactions with ER Alpha, beta-galactosidase units, value ([1]; Tamoxifen Citrate)	block of tamoxifen activated transcription on distinct promoters (ER)	binding of the probe to ER α (ERα; in the presence of modulators)	binding to ERα in the in vitro phage display system (ERα)
SSLTSRDFGSWYASR [α II]	20100 MOD/min/mg	30983 MOD/min/mg	1224 MOD/min/mg	8933 MOD/min/mg	blocks tamoxifen partial agonist activity from all promoters tested	binds to ER α in the presence of any compound that binds to the estrogen receptor	bind in the presence of estradiol and 4-OH-tamoxifen, but not in their absence
SSPGSREWFKDMLSR [α/β V]	4128 MOD/min/mg	648 MOD/min/mg	548 MOD/min/mg	1005 MOD/min/mg	–	–	–
SSWDMHQFFWEGVSR [α/β III]	3194 MOD/min/mg	605 MOD/min/mg	381 MOD/min/mg	600 MOD/min/mg	–	–	binds to ERα only in the presence of 4-OH-tamoxifen
